{
  "source": "paper PMC8850444",
  "about": "“The lipid components of high-density lipoproteins (HDL) are essential for the binding and transportation of antimicrobial peptides in human serum” (Scientific Reports, 2022)",
  "proteins": {"B1": {"name": "apolipoprotein A-II (Apo-AII) of human serum (natural protein)", "chain": "not shown", "notes": "Dimeric under non-reducing conditions; In serum it stands in HDL particles together with lipids; also called 17 kDa protein; source: endogenous, crude human serum"}},
  "biological_target": "the molecule itself",
  "assay": "non-reducing SDS-PAGE; serum proteins pulled down by immobilised LL37, 15% non-reducing SDS-PAGE, Coomassie; monomer to dimer",
  "data": [
    {"protein": "B1", "values": [
      {"measurement": "stoichiometry N", "result": 2}
    ]}
  ]
}
